Like-named read-outs stand apart in the source and are kept apart here.
B1: XCR-XC dimer (Xist A-repeat dimer), synthetic (structured_RNA)
RNA: UUGCCCAUCGGGGCCUCGGAUACCUGCUUUAAAUUGCCCAUCGGGGCCUCGGAUACCUGCUUUAC
B2: H12-H13 SRA, synthetic (structured_RNA)
RNA: GCAGGUAUGUGAUGACAUCAGCCGACGCCUGGCACUGCUGCAGGAACAGUGGGCUGGAGGAAAGUUGUCAAUACCUGU

Tests used:
[1] = molecular target: T1, Spen RRM domains (Spen RRMs) (UniProt Q96T58 335-620); test: EMSA
T1 sequence: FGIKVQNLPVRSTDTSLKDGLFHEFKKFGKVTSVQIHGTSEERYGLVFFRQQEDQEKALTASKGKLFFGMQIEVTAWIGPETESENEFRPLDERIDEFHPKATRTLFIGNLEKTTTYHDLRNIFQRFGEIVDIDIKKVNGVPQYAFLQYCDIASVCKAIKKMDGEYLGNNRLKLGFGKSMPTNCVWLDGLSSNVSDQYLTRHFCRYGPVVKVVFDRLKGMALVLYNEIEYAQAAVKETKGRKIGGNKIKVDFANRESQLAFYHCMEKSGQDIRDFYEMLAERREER

[2] = molecular target: T1, Spen RRM domains (Spen RRMs); test: EMSA; remark: listed apart in the source

Row | Binder | binding result [1] | binding result [2]
1 | B1 | binds | 
2 | B2 |  | binds
